Literature values as cited in PMC2797979 (Diabetes Care, 2009).

Settings: long-acting insulin analogs

## detemir
  Elimination half-life: 24 h
